Each binder was assayed against SARS-CoV spike protein (SARS-CoV, UniProt P59594 14-1190) (assay: not given).

| Binder | median fluorescence intensity, fold over isotype control [fold over isotype] |
| --- | --- |
| antibody 320 (antibody, V domains shown) VH: QVQLVQSGAEVKKPGASVKVSCKASGYTFTSYGISWVRQAPGQGLEWMGWISAYNGNTNYAQKLQGRVTMTTDTSTRTAYMELRSLRSDDTAVYYCARVGCYYDSSGYSCAENFQHWGQGTLVTVSS VL: QSVLTQPPSVSGAPGQRVTISCTGSSSNIGAGYDVHWYQQLPGTAPKLLIYGNSNRPSGVPDRFSGSKSGTSASLAITGLQAEDEADYYCQSYDSSLSALFGGGTKLTVL | 989 |
| antibody 323 (antibody, V domains shown) VH: QVQLVQSGAEVKKPGASVKVSCKVSGYTLTELSMHWVRQAPGKGLEWMGGFDPEDGETIYAQKFQGRVTMTEDTSTDTAYMELSSLRSEDTAVYYCATSTIFAPGGWFDPWGQGTLVTVSS VL: QSALTQPASVSGSPGQSITISCTGTSSDVGSYNLVSWYQQHPGKAPKLMIYEVSKRPSGVSNRFSGSKSGNTASLTISGLQAEDEADYYCCSYAGSTHYVFGTGTKVTVL | 1.29 |
| antibody 324 (antibody, V domains shown) VH: QVQLQESGPGLVKPSGTLSLTCAVSGGSISSSNWWSWVRQPPGKGLEWIGEIYHSGSTNYNPSLKSRVTISVDNSKNQFSLKLSSVTAADTAVYYCARESVAAAGISYYYYGMDVWGQGTTVTVSS VL: EIVLTQSPGTLSLSPGERATLSCRASQSVSGRYLAWYQQKPGQAPRLLIYGASSRATGIPDRFSGSGSGTDFTLTISRLEPEDFAVYYCQHYGSSPGTFGQGTRLEIK | 1.14 |
| antibody 328 (antibody, V domains shown) VH: QVQLQESGPGLVKPSGTLSLTCAVSGGSISSSNWWSWVRQPPGKGLEWIGEIYHSGSTNYNPSLKSRVTISVDNSKNQFSLKLSSVTAADTAVYYCARESVAAAGISYYYYGMDVWGQGTTVTVSS VL: DIQMTQSPSSLSASVGDRVTITCRASQGIRNDLGWYQQKPGKAPKRLIYAASSLQSGVPSRFSGSGSGTEFTLTVSGLQPEDFATYYCLQYNSSPLTFGGGTKVEIK | 1.22 |
| antibody 329 (antibody, V domains shown) VH: EVQLVESGGGLVQPGGSLRLSCAASGFTFSSYWMHWVRQAPGKGLVWVSRINSDGSSTSYADSVKGRFTISRDNAKNTLYLQMNSLRAEDTAVYYCAREGIVATITLDYWGQGTLVTVSS VL: not shown | 2.46 |

These binders were tested against T1, SARS-CoV-2 spike protein (SARS-CoV-2, UniProt P0DTC2 14-1208) (assay: HT-SPR, Carterra LSA; mAb coupled to chip, antigen injected; 1:1 fit).
T1 construct: also called SARS-CoV-2 S protein; antigen of interest

| Binder | Kd [nM] | koff [s⁻¹] | kon [M⁻¹ s⁻¹] |
| --- | --- | --- | --- |
| antibody 502 (antibody, V domains shown) VH: QVQLVQSGAEVKKPGASVKVSCKASGYTFTSYYMHWVRQAPGQGLEWMGIINPSGGSTSYAQKFQGRVTMTRDTATSTVYMELSSLRSEDTAVYYCARGGGQISMIIVVMDDAFDIWGQGTMVTVSS VL: not shown | 2.49 | 0.000269 | 108000 |
| antibody 506 (antibody, V domains shown) VH: QITLKESGPTLVKPTQTLTLTCTFSGFSLSTSGVGVGWIRQPPGKALEWLALIYWDDDKRYSPSLKSRLTITKDTSKNQVVLTMTNMDPVDTATYYCAHHSLSSIFDYWGQGTLVTVSS VL: QSALTQPASVSGSPGQSITISCTGTSSDVGDYNYVSWYQQHPGKAPKLMIYEVSNRPSGVSNRFSGSKSGNTASLTISGLQAEDEADYYCSSYTSSSTVFGGGTKLTVLG | 0.523 | 0.00021 | 401000 |
| antibody 513 (antibody, V domains shown) VH: QVQLVESGGGVVQPGRSLRLSCAASGFTFSSYAMHWVRQAPGKGLEWVAVISYDGSNKYYADSVKGRFTISRDNSKNTLYLQMNSLRAEDTAVYYCARAGSGSYYNWFDPWGQGTLVTVSS VL: QSALTQPASVSGSPGQSITISCTGTSSDVGGYNYVSWYQQHPGKAPKLMIYEVSNRPSGVSNRFSGSKSGNTASLTISGLQAEDEADYYCSSYTSSSTPYVFGTGTKVTVL | 0.0996 | 2.62e-05 | 263000 |
| antibody 515 (antibody, V domains shown) VH: EVQLVESGGGLVKPGGSLRLSCAASGFTFSSYSMNWVRQAPGKGLEWVSSISSSSSYIYYADSVKGRFTISRDNAKNSLYLQMNSLRAEDTAVYYCASIAAAGTLYYYYGMDVWGQGTTVTVSS VL: not shown | 44.2 | 0.00134 | 30200 |
| antibody 518 (antibody, V domains shown) VH: QVQLVESGGGVVQPGRSLRLSCAASGFTFSSYAMHWVRQAPGKGLEWVAVISYDGSNKYYADSVKGRFTISRDNSKNTLYLQMNSLRAEDTAVYYCAKPYSGSYWDAFDIWGQGTMVTVSS VL: not shown | 0.0685 | 2.75e-05 | 401000 |
| antibody 520 (antibody, V domains shown, also called mAb 520) VH: QVQLVESGGGVVQPGRSLRLSCAASGFTFSSYAMHWGRQAPGKGLEWVAVISYDGSNKYYADSVKGRFTISRDNSKNTLYLQMNSLRAEDTAVYYCARDGGSGWLLVGNWFDPWGQGTLVTVSS VL: QSALTQPASVSGSPGQSITISCTGTSSDVGGYNYVSWYQQHPGKAPKLMIYDVSNRPSGVSNRFSGSKSGNTASLTISGLQAEDEADYYCSSYTSSITLYVFGTGTKVTVL | ≤ 0.229 | ≤ 1e-05 | 43600 |
| antibody 525 (antibody, V domains shown) VH: QVQLVESGGGVVQPGRSLRLSCAASGFTFSSYAMHWVRQAPGKGLEWVTVISYNGRNKYYADSVKGRFTISRDNSKNTLYLQMNSLRAEDTAVYWCAREGLGAIVVGLDYWGQGTLVIVSS VL: not shown | 0.107 | 3.94e-05 | 367000 |
| antibody 528 (antibody, V domains shown, also called mAb 528) VH: QVQLVQSGAEVKKPGSSVKVSCKASGGTFNSNSISWVRQAPGQGLEWMGRIIPILDITMYARKFQGRVTISADKSTGTAYMDLSSLRSEDTAVYYCATDRDDSSGDYYYGMDVWGQGTTVTVSS VL: DIQMTQSPSSLSASVGDRVTITCRASLSISNYLNWYQQKPGKAPNLLIYAASTLQSGVPSRFSGSGSGTDFTLTISSLQPEDFATYYCQQTYITRWTFGQGTKVEIK | 0.509 | 0.000285 | 560000 |
| antibody 530 (antibody, V domains shown, also called mAb 530) VH: EVQLVESGGGLVQPGGSLRLSCAASGFTFSSYWMSWVRQAPGKGLEWVANIKQDGSEKYYVDSVKGRFTISRDNAKNSLYLQMNSLRAEDTAVYYCAREPQLWSEYYFDYWGQGTLVTVSS VL: DIQMTQSPSSLSASVGDRVTITCRASQGISSWLAWYQQKPEKAPKSLIYAASSLQSGVPSRFSGSGSGTDFTLTISSLQPEDFATYYCQQYNSYPPTFGQGTRLEIK | 2.19 | 0.000209 | 95400 |
| antibody 535 (antibody, V domains shown) VH: EVQLVESGGGLIQPGGSLRLSCAASGFTVSSNYMSWVRQAPGKGLEWVSVIYSGGSTYYADSVKGRFTISRDNSKNTLYLQMNSLRAEDTAVYYCARDLTEEGDFWSASSYRRYYYYGMDVWGQGTTVTVSS VL: not shown | 0.395 | 4.15e-05 | 105000 |
| antibody 552 (antibody, V domains shown) VH: QVQLVQSGAEVKKPGSSVKVSCKASGGTFSSYGISWVRQAPGQGLEWMGRIIPILGIANYAQKFQGRVTITADKSTSTAYMELSSLRSEDTAVYYCARAVYAAGDDDYYYYYGMDVWGQGTTVTVSS VL: SYELTQPPSVSVSPGQTARITCSGDALPKQYAYWYQQKPGQAPVVVIYKDSDRPSGIPERFSGSSSGTTVTLTISGVQAEDEADYYCQSADSSGTYQVFGTGTKVSVL | 0.0393 | 1.01e-05 | 258000 |
| antibody 554 (antibody, V domains shown) VH: QVQLVESGGGVVQPGRSLRLSCAASGFTFSSYAMHWVRQAPGKGLEWVAVISYDGSNKYYADSVKGRFTISRDNSKNTLYLQMNSLRAEDTAVYYCARPQGGNYYYYGMDVWGQGTTVTVSS VL: DIQMTQSPSSVSASVGDRVTITCRASQGISSWLAWYQQKPGKAPKLLIYAASSLQSGVPSRFSGSGSGTDFTLTISSLQPEDFATYYCQQANSFPLTFGGGTKVEIK | 0.129 | 3.5e-05 | 271000 |
| antibody 557 (antibody, V domains shown) VH: QVQLVESGGGVVQPGRSLRLSCAASGFTFSSYAMHWVRQAPGKGLEWVAVISYDGSNKYYADSVKGRFTISRDNSKNTLYLQMNSLRAEDTAVYYCARMYSGSYRGGFDYWGQGTLVTVSS VL: not shown | 0.144 | 3.35e-05 | 233000 |
| antibody 558 (antibody, V domains shown) VH: QVQLVESGGGVVQPGRSLRLSCAASGFTFSSYAMHWVRQAPGKGLEWVAVISYDGSNKYYADSVKGRFTISRDNSKNTLYLQMNSLRAEDTAVYYCARGQGGGYYYGMDVWGQGTTVTVSS VL: QSALTQPASVSGSPGQSITISCTGTSSDVGGYNYVSWYQQHPGKAPKLMIYDVSNRPSGVSNRFSGSKSGNTASLTISGLQAEDEADYYCSSYTSSSTLYVFGTGTKVTVL | 0.237 | 8.94e-05 | 378000 |
| antibody 559 (antibody, V domains shown) VH: QVQLQESGPGLVKLSETLSLTCTVSGYSISSGYYWGWIRQPPGKGLEWIGSIYHSGSTYYNPSLKSRVTISVDTSKNQFSLKLSSVTAADTAVYYCAREETLGSSWYESYIDYWGQGTLVTVSS VL: SYVLTQPPSVSVAPGKTARITCGGNNIGSKSVHWYQQKPGQAPVLVIYYDSDRPSGIPERFSGSNSGNTATLTISRVEAGDEADYYCQVWDSSSDHPRVFGGGTKLTVL | 32.2 | 0.000631 | 19600 |
| antibody 562 (antibody, V domains shown) VH: QVQLVESGGGVVQPGRSLRLSCAASGFTFSSYAMHWVRQAPGKGLEWVAVISYDGSNKYYADSVKGRFTISRDNSKNTLYLQMNSLRAEDTAVYYCARASSGGYQGPFDPWGQGTLVTVSS VL: QSALTQPASVSGSPGQSITISCTGTSSDVGGYNYVSWYQQHPGKAPKLMIYDVSNRPSGVSNRFSGSKSGNTASLTISGLQAEDEADYYCSSYTSSSTLLYVFGTGTKVTVLG | 0.0211 | 1.16e-05 | 548000 |
| antibody 585 (antibody, V domains shown) VH: QVQLVESGGGVVQPGRSLRLSCAASGFTFATYAMHWVRQAPGKGLEWVALISHDGSNKHYADSVKGRFTISRDNSKKTLYLQMNSLRAEGTAIYYCARESLEAAAPPFDYWGQGTLVTVSS VL: SYELTQPPSVSVSPGQTATIICSGDKLGEKYASWYQQKPGQSPALVIYQDRKRPSGIPERFSGSNSGNTATLTISGTQAMDEADYYCQAWDSSNSVVFGGGTKLTVP | 0.248 | 4.59e-05 | 185000 |

Reference: US20210292393A1 (published 2021)
